# The supplement of paper PMC9112550, “Optimization of the antimicrobial peptide Bac7 by deep mutational scanning” (BMC Biology, 2022)
# System: Escherichia coli TOP10
# Experiment: shrunken log2 fold change of peptide-encoding DNA abundance (4.5 h post-induction vs induction); higher = less antimicrobial activity (less host growth inhibition)
# Details: time post-induction: 4.5 h; library: site-saturation at positions 5, 18, 19, 20
# 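Further: peptides expressed intracellularly from a pBAD plasmid library in pooled LB shake-flask culture, induced with 0.3% L-arabinose, DNA abundance read by NGS, three biological replicates, DESeq2 with apeglm shrinkage.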
row,Sequence,shrunken log2 fold change
1,RRIRQRPPRLPRPRPRPEPPPRP,0.488
2,RRIRSRPPRLPRPRPRPWYIPRP,-0.314
3,RRIRYRPPRLPRPRPRPMVQPRP,0.0303
4,RRIRRRPPRLPRPRPRPFKCPRP,-0.135
5,RRIRYRPPRLPRPRPRPDASPRP,-0.00663
6,RRIRHRPPRLPRPRPRPTLQPRP,-0.0103
7,RRIRGRPPRLPRPRPRPDGDPRP,0.265
8,RRIRYRPPRLPRPRPRPHPWPRP,-0.542
9,RRIRNRPPRLPRPRPRPCCPPRP,-0.0502
10,RRIRGRPPRLPRPRPRPSCEPRP,0.507
11,RRIRDRPPRLPRPRPRPMTDPRP,-0.109
12,RRIRGRPPRLPRPRPRPGQKPRP,0.494
13,RRIRQRPPRLPRPRPRPPYPPRP,-0.0407
14,RRIRDRPPRLPRPRPRPSLKPRP,0.155
15,RRIRARPPRLPRPRPRPIVDPRP,0.543
16,RRIRWRPPRLPRPRPRPFENPRP,-0.15
17,RRIRWRPPRLPRPRPRPAKMPRP,0.519
18,RRIRPRPPRLPRPRPRPKQNPRP,0.0525
19,RRIRYRPPRLPRPRPRPKFSPRP,-0.434
20,RRIRPRPPRLPRPRPRPDFSPRP,0.0658
21,RRIRMRPPRLPRPRPRPSSMPRP,-0.0815
22,RRIRLRPPRLPRPRPRPSKIPRP,-0.349
23,RRIRERPPRLPRPRPRPFGRPRP,-0.0419
24,RRIRVRPPRLPRPRPRPDQCPRP,0.0862
25,RRIRYRPPRLPRPRPRPTPPPRP,0.421

row,Sequence,shrunken log2 fold change
1,RRIRQRPPRLPRPRPRPTTRPRP,0.215
2,RRIRDRPPRLPRPRPRPDVWPRP,0.511
3,RRIRCRPPRLPRPRPRPFHDPRP,-0.727
4,RRIRLRPPRLPRPRPRPPIKPRP,-0.179
5,RRIRDRPPRLPRPRPRPWDDPRP,-0.249
6,RRIRLRPPRLPRPRPRPAPIPRP,0.0892
7,RRIRNRPPRLPRPRPRPSRDPRP,-0.129
8,RRIRGRPPRLPRPRPRPLTCPRP,0.416
9,RRIRVRPPRLPRPRPRPTATPRP,0.272
10,RRIRYRPPRLPRPRPRPLDMPRP,-0.151
11,RRIRHRPPRLPRPRPRPNKAPRP,0.147
12,RRIRFRPPRLPRPRPRPESLPRP,0.0896
13,RRIRDRPPRLPRPRPRPRCVPRP,0.117
14,RRIRYRPPRLPRPRPRPKDVPRP,-0.0107
15,RRIRARPPRLPRPRPRPDRYPRP,-0.474
16,RRIRYRPPRLPRPRPRPFMKPRP,-0.272
17,RRIRERPPRLPRPRPRPYFCPRP,-0.765
18,RRIRQRPPRLPRPRPRPGQCPRP,-0.156
19,RRIRLRPPRLPRPRPRPSVLPRP,-0.779
20,RRIRARPPRLPRPRPRPYISPRP,-0.132
21,RRIRWRPPRLPRPRPRPIITPRP,-0.827
22,RRIRRRPPRLPRPRPRPRQSPRP,0.243
23,RRIRARPPRLPRPRPRPGWVPRP,0.29
24,RRIRVRPPRLPRPRPRPPKSPRP,0.1
25,RRIRNRPPRLPRPRPRPDLFPRP,-0.00884

row,Sequence,shrunken log2 fold change
1,RRIRFRPPRLPRPRPRPCIGPRP,-0.1
2,RRIRPRPPRLPRPRPRPSNNPRP,-0.542
3,RRIRVRPPRLPRPRPRPRRFPRP,0.309
4,RRIRERPPRLPRPRPRPAQRPRP,0.324
5,RRIRGRPPRLPRPRPRPAIQPRP,0.438
6,RRIRVRPPRLPRPRPRPYFYPRP,-0.474
7,RRIRIRPPRLPRPRPRPLPCPRP,-0.661
8,RRIRCRPPRLPRPRPRPCGRPRP,-0.184
9,RRIRMRPPRLPRPRPRPCWYPRP,0.092
10,RRIRIRPPRLPRPRPRPDIRPRP,-0.00601
11,RRIRCRPPRLPRPRPRPPQFPRP,0.695
12,RRIRARPPRLPRPRPRPYQRPRP,-0.229
13,RRIRERPPRLPRPRPRPYDTPRP,-0.00822
14,RRIRLRPPRLPRPRPRPNMMPRP,-0.762
15,RRIRMRPPRLPRPRPRPIRNPRP,0.00101
16,RRIRLRPPRLPRPRPRPICAPRP,0.0264
17,RRIRLRPPRLPRPRPRPWIIPRP,-0.631
18,RRIRVRPPRLPRPRPRPLEEPRP,0.0793
19,RRIRERPPRLPRPRPRPDDPPRP,-0.157
20,RRIRSRPPRLPRPRPRPTTWPRP,0.053
21,RRIRNRPPRLPRPRPRPHSPPRP,-0.415
22,RRIRLRPPRLPRPRPRPNEKPRP,-0.00697
23,RRIRDRPPRLPRPRPRPQSQPRP,0.112
24,RRIRGRPPRLPRPRPRPQLAPRP,1.19
25,RRIRKRPPRLPRPRPRPKNFPRP,-0.148
